According to the domain aggregation screens of Martell et al. (2025):

Assay: soluble fraction after stress (log2 fold change); higher = more stays soluble; pooled small domains, quantitative proteomics
Conditions: stress: 50 degC
How it was run: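 Custom libraries of small protein domains were pooled and measured in a high-throughput format, with quantitative proteomics as the read-out. Each library was stressed at 50°C. The value is the log2 fold change in the amount of each protein that stays soluble after stress, used as a measure of aggregation propensity; higher values mean more of the protein stays soluble.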

Sequence | soluble fraction (log2)
HMEYSAAYDRELESIFNLTERGKWEEAEAEVGLLLQQYPEDKTLLRISEWVATQKTILREQAIEDRIRS | 0.186
HMSKGKNEVIAYLKAHNDHRLTVAEILDGLKEEGISINRSTIYRNLDKLVENGDILAFKGKDSESAFYQYS | 0.0754
HMIEMAGGYRKGDRVELHSLKGAAEHNGKQGTVVGPQGERVKVLLDDSDSKTLALKVTNLTKLESA | 0.112
HMATVGENIRRYRKAQNLSAAKLAEKVGLTQGAILHYERGIRTPGISQLEKIAHALNVSPRM | -0.0581
HMDSPALAIPSSAILRDGLEHIFFRQDPSDPDQVIRVVADLGLSDGRWTVVRSGLERTDQVVLSGA | 0.0102
HMATVELELKPEELRAGMILTKDLISGTGMMLLNKGVTLDNVKVEAIQRYYQLDPPLHGVFALVHGK | -0.503
HMKEIIFRGIGEFILDYKSLVIEFLNKNNYANLSMDAPVDEVNKAVANNMLNEDFVTELLLFQRRVE | -1.2
HMLRRNQVQSQVIPRENGSYVVELQLRDDVDSILRLELTAATEAMARDLADRFRQDPEGVYTRLLSALY | -0.789
HMASRTLSYSEFMSRVDSGDVTSVTLDGERIIMRTSNNQEFLSIKPEGEDISERLLAKNIEVRAEAQQ | -0.284
HMKELFETLPDVLDAKLLASALSISKAGAYQLLNRPDFPTLQVGGWKLVTKQKLALWMEQHTN | -3.21
HMTMNLIEIGHVVGARRAELGLTQAQLAHLSGLSRQTVVGLEKGTLSDLGVNRVGQVMAVLGLDS | -0.51
HMRGHASVEIKRIVYKYKLTDQELAKITGMKASDFPIYHDHLQLILPKRYWARVLDALQNYEKEHES | -4.18
HMPYFLKQSNTRSKGLYLQIYHSFYVPGKGSRNKSYKAIGYVSELIKNGIEDPITYAKNLVDELNNNSSTP | -3.75
HMRLIDVFELSPKNRTVLQLYYYEGYSVTEISKILKISVNGVTSRLSRARSKLKLEMEAAENE | -0.316
HMVVSDKIAFSSFLKSVEDGRVVEVEITGNDIRGILSDGTVFNTYAPNDPNLVEKLTSKGVNITALPKE | 0.19
HMPAFWILAVLAGGRRHGYQIMREAALSSEGLVTLKPTTLYAALERLERDGAIQQDGEEIVDGRVRRYYRI | 0.259
HMGSFISADEALAKALSHAGLDQSAIRELEMDSELDDDVPHYSIDFKSGNLEYEYEISATDGSVLKFEQD | 0.105
HMRRHLLEMNDAIGRLGRLISEDPADRDVAEVIWAALRGMVMGQMIMNEPIDWQRERRTLVEMAIGR | 0.0146
HMAGYDTYMVDRDAELLPWLLETLQRESRSKVKATLQGNGIKVNGKRVTQFNYPLKAGMKVSVSKSK | -0.0376
HMQIIGEQNQKDFIALFGAILRMRNLLLSFDEFKGNELISERDLQDYLGRYQDLRDEWRNKRRER | 0.0518
HMNAFEIYPNPASNLIRIDAEFTVAKIFSQTGNLIQTSTTKEIDVYNLANGIYFVKLDDSPSMVKFVIN | -0.705
HMSNYYNILGVNKSSTQDEIKKAFRKKAVEHHPDKGGNEATFKKINEAYNTLSDNNKRHMYDMQQSG | 0.213
HMEPVQPVMYSEFIESVERGEVVEATIQGDKIIATDRSGNRYTVVGSAKDPQLVGQLLERNVAFKFVEE | 0.00245
HMKEIPTKKGDMLEIYEANGKYILKYPTFNITMPEVVKEIPKEAVDSYLAGKHDGEELINYANFGFWKS | -0.185
HMASIGVGTIVRVANAVNYNGVKVKAWFNDEGYEVTELSGDRAVLKHNGDLFDAFHVSDLEA | -1.29

Sequence | soluble fraction (log2)
HMLLNTSQLKELYNRYDKKNSSLISIPFSAISDEPLKFYKWYAALFQIELNVKAFADVDSKQIIIYKGTK | -2.51
HMQELGVISEGKYNIELNMVSWNDREPKYDIRSWAPDHSRMGKGISLTEEEMERLVELWNTRNE | -0.248
HMARDDVIRLVQLSLDHLPAKYADALEWKYVEGLSTKEIAARLELGSEAAESLLARARRAFKNDFQEIFES | -1.41
HMVTINTASLEKAIADAKAVVKESYTTDSYNAMKAVLDEAEDLLKEEAQDQDTIDAKTEALNAAIEALVKR | 0.0369
HMTNVETLVRMRLRSIRTTLGYSLDEIAERSNLSASTVSRIETGKRALSIDVLVPLAAALQVSVDDLLRAE | -2.43
HMKRWHVGDPIDALTAAGKVPSWSTIRQRFWKTIAALYPDIEQSERLQRGLAMLDEAGTSIELHHP | -1.01
HMLFQQPATMIGKIGVAMSDLRPSGKIKIDDEWYDGQSEGDYILKGQEIIVVQVMNAYLIVRL | 0.126
HMVRDPYELLEVPREATPDEIKSAFRKLAARHHPDRNPDDPGAQERFKEINAAYQLLSDPQKRAMFDRFGA | 0.169
HMNNPLPDLLKYFRKKKHLTQEQVAKQLSVSRASYASYETGRIIPGMQHIMELSRILEHDFLFAYTLAVQ | -2.34
HMPREVKLPPDLLDALEASPEAKAFFLQLSYTHQKEYAQWIEEAKQEATRQRRLEKTVQMLLEGRRT | -0.0798
HMMTDEEFLRIAGYMKQRYGIDLGQKKVIMNGRLENHIKSGGWSSFHAFMNDLEKDSSGKLEKELVNLLTT | 0.0314
HMEEPLIISIDSNGAVYLEVDSFKDQSIEMSSLREIIEKIILANPDIQVVVRGDSEVKYEKVMDLMSILQS | -1.29
HMSSLREQVADALRAHLVSGRMRPGVLYSAPKLAAEFGVSATPVREAMLDLVSEGLVDVVRNKGFRVT | -0.344
HMIGIRLKELVLKNQSAWVGLRVSELDISRKTMIVMIRRGDKMLIPNGSTILRSGDVLLLYTR | -0.452
HMKMQIGEIIRKYRKSNHMTQEEMAERLGVSAPAVNKWENGNSMPDIMLLAPITRLLGISLDELLSFE | -1.24
HMTYLIKFDENGRRSDTYVAEEKTQEQVTELLEKGFVLITEEDYQLLVGNVDGKEYIRNADGTYSEYT | -0.0279
HMKEPPTLEEIKNYFASKLSTELESEKFFNYFESNGWLVGGKTPMKNWQSAANNWLINMSKFN | -0.47
HMLLKIRPDLDGNEIMKLLNIAAGPNVGKAYEHLLELRLEHGPLGKERAEQELMNWWSARSQ | -1.09
HMGKLQFREKLNGILELGKEKHRVLTMEDVEKYFEEDALSEEQMELVYDYLLSQKIAVTGYVKK | -0.191
HMQDVKRYLVNSNQLNVRTGPGKEFEISESLNKGDAVTLLHKESNGWWEVITSTGQGYVYSSMLTKDPW | -0.525
HMEKTTTLFDETTNPGIIYIGKAMPTGSAISEAAAVWAIKTIDTTTDTEIKWADGVTTYTKVWNNRASYSY | -1.76
HMQDRDKNIEEGRQLVLHEMDRLDLVDEPLHDVARQLNMKAVEDMFAAVGAGDLRLGQIIHQLLKQADTN | -0.0442
HMIRVGRPQYKRGEFVSFDFDNGRKKTEMYGRVDVIDSYGTFGQGREVSYDIRASDGILYKHIPESSVYGF | -1.5
HMSILSRREHEIMQWVKGGKTNIEIAQILGISARTVRNHLQNVFRKLDVINRAQAVFEVERRR | -2.15
HMNPNFIEVSHGRLRVNVPLSAYEGTTYHIKPEEAEKLKRTLASRYPWLTPNALKVFIEEAEQAMRERIQ | -0.29

Sequence | soluble fraction (log2)
HMNVESLVGKQVIVSETIDNLKATGQVKVNGLEWTARAADETDIIPQGTEVTINEVSGVKLIVSR | 0.241
HMTEAIDVPNLVGQNYSDVKSNSSYKFNWDIINVYDSGKPEGEIIKQEPEAGSKKVKENAVITLTVN | 0.278
HMGVIDTLSGPQKAAAILVAIGRPSASRLLKHFNAEDLRKLAGHARTLEPISPLDFEHLVKQFEDSFAEG | -0.798
HMDIMNNILINRIKKILTEQNMSKADLSRLTGISNSSLSEYLNGKYEPKQDKIALIAKALHVSPAWLMGF | -0.915
HMRHRITEKDKQFRIGQQVWHSEYGKGMVLSVDGIGSSARLTVSFVSGKLAKIIGTFVSTEP | -1.68
HMQNRIVNTTQGLAADKRGLLVADETGHTTRPGIFASGDVVNGARTVVEAVAHSKIVAESMHQYMQ | ≥ 0.62
HMAVKTEHGRIWKALPEGQDGYREDVPMFTSKSMYDGSAGIGIFLIRLYEATSDERWLKEAEEAAAHII | 0.351
HMKMLKAPIPGTIIEVKVNPGQTVNDGDVAVVLEAMKMESDIHFNSSGKVKKIHVNKGDSVQEGDDLIELE | 0.0938
HMDNNNQAAFMGALNSLKEYAKVNGNIVTKQDVESYFKDLGLDDSKYQMITGYLLANDITVKG | 0.0282
HMVAEPVYGKVTEGPLNVRSAPSTDSEKVDSFSTGKVLTILETLDGWYKVEEGYVSADYVTIIDAAEAASS | 0.00408
HMAEEGEQAASNTAAQAEDRAAELAAAGEKGKQITKTLVAEFGIPKNEAYRLALDAVAAVKAER | -0.105
HMAAMSLGERIGAHRKRMGISQEELGHRMGVSRQAVSKWETGRAVPDMENLLALARLFGVPVSELAD | -0.177
HMAIRPDAAVSSHAVKQRLQSLIRAEDPAAPLSDEALRLALSALGIGVSRRAVAKYRAEMGIPSSSQRKK | -0.0632
HMGEAYVVPNVKNKTLGEAQLALHNQKLEGLVVDSSYVKGLPDGMILDQNPAGGARVKEGRTIYLTITTS | 0.00953
HMSTEEYDRGYEQGLEEAAKADDAWVANLIKIYSQNTPESMPETMKGRLDAFLYEQQRRAQSVPEM | 0.307
HMGQGEISVPRLEGLSLRETSELLGLFGLRLEAAGSGIALSQNPPAGARVKAGDVIQVDFGEPGN | 0.0136
HMTVADMQQKANVKRRNSNSHEAILDATVKLLGSSGYIDFSIEKVASQAGVGKQTIYRWWPSRADLVLEVW | -0.109
HMTTIRQQAEVPLSAAGRRFDQALAEMFPAYSRSRLSGWIKAGAATLDGAPAAPRQLLRGGERVELDVELE | -0.0501
HMATMSIDERILEIRSRAGLTQQEMADRLFVTRQAVSRWERGETVPGIDTLRLIAEAFDVRVDQILEL | -1.69
HMNHYTEEYILKRMKDFFTTHAYITRRDIESLFGFRRSYATKWLKHFRESGVLKQSGPVNSAVYLL | -2.83
HMTVLTDEIKVILISYIKENDFKKKHGNRKMMMTAQDMYDELVEKGYKISYPTVTQYVQKYRENETT | -1.27
HMQAITVNNEGKIFLNTIPVTLEELSSKLESLKSSTPEFPVVIRGDSGSQYQGIMDVLNVVGRLGITQIGL | -0.246
HMTSVAGIERFLASGAIKGMGAATAKLIVEHFGADTLNMLDMYPERLTEIKGIGPKKATAIIEGYRELS | -0.751
HMAQWGFNGSEAGDLSFQQGDVIEVVEKVKDDWWRGRVLGSTEIGLFPS | -0.225
HMGQAVTVPELKGLSFDEAIEKLDDAGLKYEVVDSNYVEDMKPGTVFETLPEAGSRVKPRRIVFLTINAF | -0.319
